Consider one molecule from patent US20040234623A1.

The experiment has as its target rabbit anti-human IDO polyclonal antibody (raised against the KLH-conjugated peptide of SEQ ID NO: 1, affinity purified). The experiment in a line: flow cytometry of IFNgamma-activated monocyte-derived macrophages; antibody pre-adsorbed with immunizing peptide (competition against cellular IDO).

Consider LIESGQLRERVEKLNMLC [immunizing peptide … (SEQ ID NO: 1), based on human IDO], for which the percent reduction of flow cytometry signal is > 95%.
